According to US20160208004A1:

Molecular target: human IL-17RA (human) (UniProt Q96F46)
Assay: cell-based or functional assay

Row | % Inhib. of IL-5 production, TSLP treated human PBMC + IL-2 + IL-25, Expt. 1 [%] | % Inhib. of IL-5 production, TSLP treated human PBMC + IL-2 + IL-25, Expt. 2 [%] | % Inhibition of IL-5 production, TSLP treated human PBMC + IL-2 + IL-25; inhibitor 0.1 micrograms/mL [%] | % Inhibition of IL-5 production, TSLP treated human PBMC + IL-2 + IL-25; inhibitor 1.0 micrograms/mL [%] | % Inhibition of IL-5 production, TSLP treated human PBMC + IL-2 + IL-25; inhibitor 10 micrograms/mL [%] | Binder
1 | 68 | 76 | 12 | 54 |  | 3.1404 (antibody, from a related filing, V domains shown) VH: QVQLVQSGAEVKKPGASVKVSCKASGYTFTRYGISWVRQAPGQGLEWMGWISTYSGNTNYAQKLQGRVTMTTDTSTSTAYMELRSLRSDDTAVYYCARRQLYFDYWGQGTLVTVSS VL: EIVMTQSPATLSVSPGERATLSCRASQSVSSNLAWFQQKPGQAPRPLIYDASTRATGVPARFSGSGSGTDFTLTISSLQSEDFAVYYCQQYDNWPLTFGGGTKVEIK
2 | 90 | 75 |  |  | 100 | 3.381 (antibody, from a related filing, V domains shown) VH: QVQLVQSGAEVKKPGASVKVSCKASGYTFTRYGISWVRQAPGQGLEWMGWISAYSGNTNYAQKLQGRVTMTTDTSTSTAYMELRSLRSDDTAVYYCARRQLYFDYWGQGTLVTVSS VL: EIVMTQSPATLSVSPGERVTLSCRASQSVSSNLAWFQQKPGQAPRPLIYDASTRAAGIPARFSGSGSGTDFTLTISSLQSEDFAVYYCQQYDNWPLTFGGGTKVEIK
